Source: article doi:10.1101/640771 (bioRxiv, 2019)

Biological target: T1, ALFA-tagged target immobilised for SPR with NbALFA (TST-NEDD8-ALFA or GFP-ALFA) (synthetic (designed ALFA-tag))
T1 chain: SRLEEELRRRLTE
Test: SPR

Kd: ~0.026 nM
B1: NbALFA (non-tagged) (VHH)
VHH: EVQLQESGGGLVQPGGSLRLSCTASGVTISALNAMAMGWYRQAPGERRVMVAAVSERGNAMYRESVQGRFTVTRDFTNKMVSLQMDNLKPEDTAVYYCHVLEDRVDSFHDYWGQGTQVTVSS
